First the molecules themselves.
B1: A03 (antibody, V domains shown)
VH: DVQLQESGPDRVKPSQSLSLTCTVTGYSITSDYSWHWIRQFPGNKLEWMGYIYSSGHTYYNPSLKSRISFTRDTSKNQFFLQLNSVTTEDTATYYCAIYYYGRSYFDNWGRGTTLTVSS
VL: QIVLTQSPAIMSASPGEKVTLTCSASSSVNYMHWYQQKSGTSPKRWIYDTSKLASGVPARFSGSGSGTSYSLTISSMEAEDAATYYCQQWSSNPLTFGAGTKLELK
B2: B03 (antibody, V domains shown)
VH: EVKLVESGGGLVQPGGSLRLSCATSGFTFSDFYMEWVRQPPGKRLEWIAASRDKANDYTTEYSPSVQGRFIVSRDSSQSILYLQMNALRTEDTAIYYCARDVGRSYALDYWGQGTSVTVSS
VL: QVVLTQSPAIMSASPGEKVTMTCSASSSVTYMHWYQQKSGTSPKRWIYVTSKLASGVPTRFSGSGSGTSYSLTISSMEAEDAATYYCQQWSRKPPTFGAGTKLELK
B3: A01 (antibody, V domains shown)
VH: QVQLKESGPGLVAPSQSLSITCTVSGFSLPTSGVHWVRQPPGKGLEWLGVIWAGGDTNYNSALMSRLSISKDNSKSQVFLKMNSLQKDDTAIYYCLGHGHFDVWGAGTTVTVSS
VL: DVVMTQTPLSLPVSLGDQASISCRSSQSLVHSSGNTYLQWYLQKPGQSPGLLIYKVSNRFSGVPDRFSGSGSGTDFTLKISRVEAEDLGVYFCSQTTHVPWTFGGGTKLEIK
B4: A02 (antibody, V domains shown)
VH: QVQLKESGPGLVAPSQSLSITCTVSGFSLTSSGVHWVRQPPGKGLEWLGVIWAGGDTSYNSALMSRLSISKDNSKSQVFLKMNSLQTDDTAMYYCLGHGHLDVWGAGTTVTVSS
VL: DVVMTQTPLSLPVSLGDQASISCRSSQSLVHSSGNTYLHWYLQKPGQSPGLLIYKVSNRFSGVPDRFSGSGSGTDFTLKISRVEAEDLGVYFCSQTTHVPWTFGGGTKLEIK
B5: B01 (antibody, V domains shown)
VH: QIQLVQSGPELKKPGETVKISCKASGYTFTNYGMNWVKQAPGKGLKWMGWINPYTGEPTYADDFKGRFAFSVETSASTAYLQINNLKNEDTATYFCARKPPFDYWGQGTTLTVSS
VL: DIVMTQAAPSVPVTPGESVSISCRSSKSLLHSNGNTYLYWFLQRPGQSPQILIYRVSNLASGVPDRFSGSGSGTAFTLRISRVEAEDVGVYYCMQHVEYPFTFGSGTKLEIK
B6: B02 (antibody, V domains shown)
VH: EVQLQQSGPELVKPGASVKMSCKASGYTFTSYVMYWVKQKPGQGLEWIGYVNPYNDGTNYNEKFKGKATLTSDKSSSTAYMELSSLTSEDSAVYYCARGAMDYWGQGTSVTVSS
VL: DIVMTQAAPSVPVTPGESVSISCRSSKSLLHSQGNTYLYWFLQRPGQSPQILIYRVSNLASGVPDRFSGSGSGTAFTLRISRVEAEDVGVYYCMQHVEYPFTFGSGTKLEIK
B7: Chi-A01 (antibody, human IgG4 S228P, kappa, V domains shown)
VH: QVQLKESGPGLVAPSQSLSITCTVSGFSLPTSGVHWVRQPPGKGLEWLGVIWAGGDTNYNSALMSRLSISKDNSKSQVFLKMNSLQKDDTAIYYCLGHGHFDVWGAGTTVTVSS
VL: DVVMTQTPLSLPVSLGDQASISCRSSQSLVHSSGNTYLQWYLQKPGQSPGLLIYKVSNRFSGVPDRFSGSGSGTDFTLKISRVEAEDLGVYFCSQTTHVPWTFGGGTKLEIKR
B8: hzA01-3.1 (antibody, human IgG4 S228P, kappa, V domains shown)
VH: QVQLQESGPGLVKPSETLSLTCTVSGFSLPTSGVHWIRQPPGKGLEWIGVIWAGGDTNYNPSLKSRVTISKDNSKNQVFLKLSSVTAADTAVYYCLGHGHFDVWGQGTLVTVSS
VL: DVVMTQSPLSLPVTLGQPASISCRSSQSLVHSSGNTYLQWYLQRPGQSPGLLIYKVSNRFSGVPDRFSGSGSGTDFTLKISRVEAEDVGVYYCSQTTHVPWTFGQGTKLEIKR
B9: hzA01-3.4 (antibody, human IgG4 S228P, kappa, V domains shown)
VH: QVQLKESGPGLVKPSETLSLTCTVSGFSLPTSGVHWIRQPPGKGLEWIGVIWAGGDTNYNSALMSRVTISKDNSKSQVFLKMSSVTAADTAVYYCLGHGHFDVWGQGTLVTVSS
VL: DVVMTQSPLSLPVTLGQPASISCRSSQSLVHSSGNTYLQWYLQRPGQSPGLLIYKVSNRFSGVPDRFSGSGSGTDFTLKISRVEAEDVGVYYCSQTTHVPWTFGQGTKLEIKR
B10: hzA01-3.3 (antibody, human IgG4 S228P, kappa, V domains shown)
VH: QVQLKESGPGLVKPSETLSLTCTVSGFSLPTSGVHWIRQPPGKGLEWIGVIWAGGDTNYNSALKSRVTISKDNSKSQVFLKLSSVTAADTAVYYCLGHGHFDVWGQGTLVTVSS
VL: DVVMTQSPLSLPVTLGQPASISCRSSQSLVHSSGNTYLQWYLQRPGQSPGLLIYKVSNRFSGVPDRFSGSGSGTDFTLKISRVEAEDVGVYYCSQTTHVPWTFGQGTKLEIKR

In the first test the target is human CD40 (hCD40), full length, on cells (human) (UniProt P25942).
Sequence of human CD40 (hCD40), full length, on cells (human) (P25942 21-277 limits assumed): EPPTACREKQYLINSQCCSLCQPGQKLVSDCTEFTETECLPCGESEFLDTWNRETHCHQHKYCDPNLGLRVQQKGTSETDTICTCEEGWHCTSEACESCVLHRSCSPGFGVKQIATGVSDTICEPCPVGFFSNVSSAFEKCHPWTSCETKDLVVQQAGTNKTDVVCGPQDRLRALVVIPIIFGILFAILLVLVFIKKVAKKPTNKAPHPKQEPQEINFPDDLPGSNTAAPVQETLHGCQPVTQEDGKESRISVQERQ
Assay: not given
With B1, the IC50; NF-κB luciferase reporter (RLU), 293T-hCD40-NFκB cells stimulated with human CD40L protein 10 µg/mL was determined as 287 ng/mL.

As for B2, the IC50; NF-κB luciferase reporter (RLU), 293T-hCD40-NFκB cells stimulated with human CD40L protein 10 µg/mL came to 16.2 ng/mL.

B3 showed an IC50; NF-κB luciferase reporter (RLU), 293T-hCD40-NFκB cells stimulated with human CD40L protein 10 µg/mL of 2.22 ng/mL.

Molecule B4 showed an IC50; NF-κB luciferase reporter (RLU), 293T-hCD40-NFκB cells stimulated with human CD40L protein 10 µg/mL of 2.79 ng/mL.

Take B5: the IC50; NF-κB luciferase reporter (RLU), 293T-hCD40-NFκB cells stimulated with human CD40L protein 10 µg/mL stood at 8.16 ng/mL.

On to B6, for which the IC50; NF-κB luciferase reporter (RLU), 293T-hCD40-NFκB cells stimulated with human CD40L protein 10 µg/mL was 5.21 ng/mL.

For another test, the target named is cynoCD40-mFc (monkey (cyno)). The test is described as follows: flow cytometry, blocking of cynoCD40-mFc (2 µg/mL) binding to CHO-K1-cynoCD40L cells.
Sequence of cynoCD40-mFc (monkey (cyno)) (chain, as listed by the source limits assumed, form in doubt): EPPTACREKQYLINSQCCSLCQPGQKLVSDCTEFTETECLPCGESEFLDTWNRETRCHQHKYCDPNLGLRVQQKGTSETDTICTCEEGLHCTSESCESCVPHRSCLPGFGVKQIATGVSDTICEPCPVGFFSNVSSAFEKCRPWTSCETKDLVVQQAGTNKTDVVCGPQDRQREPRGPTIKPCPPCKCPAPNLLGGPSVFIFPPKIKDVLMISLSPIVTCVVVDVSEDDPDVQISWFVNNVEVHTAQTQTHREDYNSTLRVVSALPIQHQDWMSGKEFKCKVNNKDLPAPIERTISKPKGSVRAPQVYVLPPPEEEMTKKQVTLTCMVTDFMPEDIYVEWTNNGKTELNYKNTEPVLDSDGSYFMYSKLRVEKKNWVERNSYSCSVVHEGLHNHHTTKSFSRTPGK
For B7, the half-inhibitory concentration (IC50) turned out to be 25.2 nM.

With B8, the IC50 was found to be 25.5 nM.

Molecule B9 yielded an IC50 of 22.9 nM.

B10 showed an IC50 of 35.8 nM.

The values above are taken from patent publication US20240383994A1.
